These results are taken from PMC4316792, “The dehydrogenase region of the NADPH oxidase component Nox2 acts as a protein disulfide isomerase (PDI) resembling PDIA3 with a role in the binding of the activator protein p67^phox” (Frontiers in Chemistry, 2015).

B1: p67^phox(1–212) [not stated] / Nox2 peptide 24 (357–371) with an intramolecular disulfide bond between C369 and C371 [modified: biotin on the N-terminus; C-terminal amide; intramolecular disulfide bond between C369 and C371; biotin on the … (parent complex)
chain 1: MSLVEAISLWNEGVLAADKKDWKGALDAFSAVQDPHSRICFNIGCMYTILKNMTEAEKAFTRSINRDKHLAVAYFQRGMLYYQTEKYDLAIKDLKEALIQLRGNQLIDYKILGLQFKLFACEVLYNIAFMYAKKEEWKKAEEQLALATSMKSEPRHSKIDKAMECVWKQKLYEPVVIPVGKLFRPNERQVAQLAKKDYLGKATVVASVVDQD
chain 2: SGSGIVGDWTEGLFNACGC

This assay covers variants of B1. As to the kind of experiment: peptide-protein binding assay (surface-attached biotinylated peptide, protein in solution, kinetic TMB oxidation read-out); 10 min kinetic experiment; read off a plot.
Consider chain 1 MSLVEAISLWNEGVLAADKKDWKGALDAFSAVQDPHSRISFNIGSMYTILKNMTEAEKAFTRSINRDKHLAVAYFQRGMLYYQTEKYDLAIKDLKEALIQLRGNQLIDYKILGLQFKLFASEVLYNIAFMYAKKEEWKKAEEQLALATSMKSEPRHSKIDKAMESVWKQKLYEPVVIPVGKLFRPNERQVAQLAKKDYLGKATVVASVVDQD [chain 1 C40S, chain 1 C45S, chain 1 C121S, chain 1 C165S], for which the response was ~12 Absorbance (650 nm) x 1000/min.
